Data taken from ChEMBL document CHEMBL2074573, “Is the monkey an appropriate animal model to examine drug-drug interactions involving renal clearance? Effect of probenecid on the renal elimination of H2 receptor antagonists” (J Pharmacol Exp Ther, 2005).

What was measured:
[1] = substrate: CNC(=C[N+](=O)[O-])NCCSCc1ccc(CN(C)C)o1; experiment: TP_TRANSPORTER: cell accumulation in hOAT3 expressing HEK cells; type: functional, cell-based, HEK293
not read [2] = substrate: NC(N)=Nc1nc(CSCCC(N)=NS(N)(=O)=O)cs1; experiment: not read
not read [3] = substrate: CN/C(=N/CCSCc1nc[nH]c1C)NC#N; experiment: not read

B1: Organic anion transporter 3 (Homo sapiens) (protein)
chain: MTFSEILDRVGSMGHFQFLHVAILGLPILNMANHNLLQIFTAATPVHHCRPPHNASTGPWVLPMGPNGKPERCLRFVHPPNASLPNDTQRAMEPCLDGWVYNSTKDSIVTEWDLVCNSNKLKEMAQSIFMAGILIGGLVLGDLSDRFGRRPILTCSYLLLAASGSGAAFSPTFPIYMVFRFLCGFGISGITLSTVILNVEWVPTRMRAIMSTALGYCYTFGQFILPGLAYAIPQWRWLQLTVSIPFFVFFLSSWWTPESIRWLVLSGKSSKALKILRRVAVFNGKKEEGERLSLEELKLNLQKEISLAKAKYTASDLFRIPMLRRMTFCLSLAWFATGFAYYSLAMGVEEFGVNLYILQIIFGGVDVPAKFITILSLSYLGRHTTQAAALLLAGGAILALTFVPLDLQTVRTVLAVFGKGCLSSSFSCLFLYTSELYPTVIRQTGMGVSNLWTRVGSMVSPLVKITGEVQPFIPNIIYGITALLGGSAALFLPETLNQPLPETIEDLENWSLRAKKPKQEPEVEKASQRIPLQPHGPGLGSS
B1 was tested, and the Km [1] was 234 µM, the Km (not read [2]) was 124 µM and the Km (not read [3]) was 149 µM.
